Test results: paper PMC12709188, “Expanding the CarD interaction network: CrsL is a novel transcription regulator in actinobacteria” (Nucleic Acids Research, 2025)
Values joined by “and” are separate entries in the source; they are usually repeats but may differ in a detail not shown here. Equal values may be shown once.

B1: CarD–NT (in vitro purified CarD) (natural protein, M. smegmatis, UniProt A0R561 1-162, looked up)
chain: MIFKVGDTVVYPHHGAALIEAIETRTIKGEQKEYLVLKVAQGDLTVRVPADNAEYVGVRDVVGQEGLDKVFQVLRAPHTEEPTNWSRRYKANLEKLASGDVNKVAEVVRDLWRRDQERGLSAGEKRMLAKARQILVGELALAENTDDAKAETILDEVLAAAS
notes: CarD, transcription factor of M. smegmatis; dimer when alone (native gel); Uniformly 13C,15N-labelled for some NMR samples; also called [^13C,^15N]-CarD; source: E. coli (strain LK3209), purified (Ni-NTA, TEV protease cleavage; for NMR also Superdex 75)

What was measured:
[1] = biological target: the molecule itself; test: native gel or EMSA; purified CrsL, CarD and DnaK mixed in 1× STB buffer (50 mM Tris–HCl pH 8.0, 5 mM Mg acetate, 100 μM DTT, 50 mM KCl, 50 μg/ml BSA), 37°C 15 min; 8% native gel at 4°C; Coomassie stain, bands confirmed by mass spectrometry
[2] = biological target: B1; test: ITC; 27.6 μM CarD in the cell titrated by 315 μM CrsL; 27°C; 50 mM Tris–HCl, 100 mM NaCl, 0.5 mM DTT, pH 7.5; one-site binding model; triplicate; details: both partners purified

Binder	stoichiometry N [1]	Kd [2]	dH [2]	stoichiometry N [2]
B1	2	–	–	–
CrsL–His (in vitro purified CrsL) (natural protein, M. smegmatis, UniProt A0R4M8 1-54, looked up, CrsL, small protein (predicted MW 5.7 kDa) encoded by MSMEG_5890 of M. smegmatis; 15N- or 13C,15N-labelled for NMR; also called [^15N]-CrsL; [^13C,^15N]-CrsL; source: E. coli (strain LK3499), purified (Ni-NTA, Superdex 75; for NMR Superdex 30)) MPAKTDPADLGDVEPLADDTASQARRVVATYATDADECRMFLSMLGIGPSKTEV	–	4.3 nM and 4.5 nM and 3.3 nM	-21 kcal/mol	1
